Residue numbers refer to the chain shown, from its start.
Key:
human B7-H7 (HHLA2) = target: T1, human B7-H7 (HHLA2) (human, UniProt Q9UM44 23-414); test: flow cytometry on CHO-KI cells stably expressing human B7-H7 (HHLA2), one concentration
T1 construct: whole, on cells
T1 sequence (looked up): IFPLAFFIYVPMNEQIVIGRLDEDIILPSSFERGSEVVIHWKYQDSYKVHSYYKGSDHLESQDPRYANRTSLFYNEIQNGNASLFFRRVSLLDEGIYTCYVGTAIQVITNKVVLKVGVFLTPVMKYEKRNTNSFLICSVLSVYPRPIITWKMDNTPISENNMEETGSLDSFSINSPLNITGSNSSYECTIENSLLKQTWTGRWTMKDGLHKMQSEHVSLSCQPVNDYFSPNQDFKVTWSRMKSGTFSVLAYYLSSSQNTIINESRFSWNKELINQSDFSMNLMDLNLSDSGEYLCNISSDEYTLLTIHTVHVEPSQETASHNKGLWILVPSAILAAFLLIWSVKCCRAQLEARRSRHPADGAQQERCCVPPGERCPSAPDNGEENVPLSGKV

human B7H4 [1] = target: T2, human B7H4 (human, UniProt Q7Z7D3 25-282); test: cell-based or functional assay
T2 sequence (looked up): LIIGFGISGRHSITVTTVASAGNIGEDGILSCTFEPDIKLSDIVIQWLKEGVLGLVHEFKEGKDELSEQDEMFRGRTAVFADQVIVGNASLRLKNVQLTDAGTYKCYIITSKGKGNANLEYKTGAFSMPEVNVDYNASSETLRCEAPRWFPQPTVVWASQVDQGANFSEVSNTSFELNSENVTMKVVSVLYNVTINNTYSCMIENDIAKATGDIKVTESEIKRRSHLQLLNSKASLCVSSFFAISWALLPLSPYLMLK

cynomolgus monkey B7H4 = target: T3, cynomolgus monkey B7H4 (cynomolgus monkey, UniProt A0A2K5U6P5 25-282); test: flow cytometry on cynomolgus monkey B7H4-transfected HEK293T cells, PE anti-human IgG Fc secondary antibody
T3 construct: whole, on cells; also called Monkey B7H4-293T
T3 sequence: T2 sequence (looked up) with L53I, F242L, S252A

human B7H4 [2] = target: T2, human B7H4; test: cell-based or functional assay; remark: listed apart in the source
human B7H4 [3] = target: T2, human B7H4; test: cell-based or functional assay; remark: listed apart in the source
mouse B7H4 = target: T4, mouse B7H4 (mouse, UniProt Q7TSP5 25-257); test: flow cytometry on mouse B7H4-transfected HEK293T cells, PE anti-human IgG Fc secondary antibody
T4 construct: whole, on cells; also called Mouse B7H4-293T
T4 sequence (looked up): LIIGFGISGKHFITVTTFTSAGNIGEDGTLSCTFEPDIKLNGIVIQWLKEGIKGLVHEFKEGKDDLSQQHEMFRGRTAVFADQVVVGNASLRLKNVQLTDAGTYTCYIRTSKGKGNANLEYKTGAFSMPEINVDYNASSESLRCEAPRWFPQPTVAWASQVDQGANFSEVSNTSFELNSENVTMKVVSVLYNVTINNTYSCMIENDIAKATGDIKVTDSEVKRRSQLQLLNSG

B1: antibody-drug conjugate DB1001-X2 (antibody, DAR 5.4, V domains shown)
VH: QVQLVESGGGVVQPGRSLRLSCAASGFTFRSFGMHWVRQAPGKGLEWVAVISYDASNEYYADSVKGRFIISRDNSKDTLYLQMNSLRAGDTAVYYCAKGGALRWYFAYWGQGTLVTVSS
VL: EIVMTQSPATLSVSPGERATLSCRASQSISSNLGWYQQKPGQAPRLLIYGASTRATGIPARFSGSGSGTEFTLTISSLQSEDFAVYYCQQYRSWPPLTFGGGTKVEIKR
modifications: linker-cytotoxin X2 (payload P-III-30) coupled after TCEP reduction of the antibody; drug-to-antibody ratio (DAR) of 5.4; conjugation residues not stated
notes: also called anti-B7H4 ADC DB1001-X2
Human B7-H7 (HHLA2)
  binding result: no binding (tested: 100 nM or 300 nM)
Human B7H4 [1]
  Fold over blank control, endocytosis by MDA-MB-468 cells: 2.4 fold
Cynomolgus monkey B7H4
  EC50: 5.36 nM
Human B7H4 [2]
  IC50 (nM), proliferation inhibition of MX-1 cells with high expression of B7H4 (3D culture, CTG): 52.4 nM
  IC50 (nM), proliferation inhibition of RL95-2 cells with low expression of B7H4 (3D culture, CTG): 69.4 nM
Human B7H4 [3]
  IC50 (nM), in vitro proliferation inhibition of MDA-MB-468 cells (CTG, 7 days): 50.7 nM
Mouse B7H4
  binding result: no binding (tested: highest concentration 100 nM)

Source: patent US20250032630A1, “B7H4 ANTIBODY-DRUG CONJUGATE AND USE THEREOF” (Duality Biologics (Suzhou) Co., Ltd., priority 2022, published 2025)
